The values that follow come from paper PMC6105031, “The crystal structure of KSHV ORF57 reveals dimeric active sites important for protein stability and function” (PLoS Pathogens, 2018).

For data set [1], the target named is GFP-tagged full-length ORF57 with all three disrupted nuclear localization signals (ORF57 mt1+2+3) (UniProt Q2HR75). Briefly: nuclear translocation assay (fluorescence microscopy of cotransfected cells).
Data set [2] concerns the molecule itself. The data set can be described thus: crystal structure; spindle-shaped crystal, sitting-drop vapor diffusion at 4°C, 0.1 M BIS-TRIS propane pH 7.0, 0.8 M lithium sulfate; space group P6(4)22, two molecules in the asymmetric unit, 3.5 Å.
[3] abbreviates: COS-1 cells, 50 double-color positive cells counted, parent: 88.

In data set [1] (n=50), “FLAG-tagged full-length ORF57 (from UniProt Q2HR75) C333S; H423L; C427S; C432S” came in with an other: % cells with nuclear translocation of 0%.

With “FLAG-tagged full-length ORF57 (from UniProt Q2HR75) W292P”, the other: % cells with nuclear translocation in data set [1] (setting [3]) came to 0%.

Turning to “FLAG-tagged full-length ORF57 (from UniProt Q2HR75) R325A; R327A”, the other: % cells with nuclear translocation in data set [1] (setting [3]) turned out to be 4%.

B1: C-terminal domain (CTD) of KSHV ORF57 (residues 167 to 455) (domain or fragment)
chain: GVSDAVKKLRLPASMIIDGESPRFDDSIIPRHHGACFNVFIPAPPSHVPEVFTDRDITALIRAGGKDDELINKKISAKKIDHLHRQMLSFVTSRHNQAYWVSCRRETAAAGGLQTLGAFVEEQMTWAQTVVRHGGWFDEKDIDIILDTAIFVCNAFVTRFRLLHLSCVFDKQSELALIKQVAYLVAMGNRLVEACNLLGEVKLNFRGGLLLAFVLTIPGMQSRRSISARGQELFRTLLEYYRPGDVMGLLNVIVMEHHSLCRNSECAAATRAAMGSAKFNKGLFFYPLS
notes: KSHV ORF57 (MTA), residues 167 to 455, GenBank ABD28908.1; Crystallised as a dimer (spindle-shaped crystal) and as a monomer (cubic crystal, 4.0 M LiCl); also called ORF57-CTD; source: E. coli BL21 (DE3), purified (Ni-NTA, ULP1 digestion, Superdex 75); not shown: His6, N-terminal, cleaved; SUMO (Smt3 of Saccharomyces cerevisiae), N-terminal, cleaved
In the case of B1, the “stoichiometry N” value in data set [2] is 2.

In general, stoichiometry N refers to the number of molecules, sites or subunits per partner or assembly.
